These results are taken from patent US20210395393A1.

This assay deals with TPA mutant tenecteplase (human) (UniProt P00750). Kind of assay: binding ELISA, plate coated with tenecteplase.
TPA mutant tenecteplase (human), sequence (P00750 36-562, change not shown): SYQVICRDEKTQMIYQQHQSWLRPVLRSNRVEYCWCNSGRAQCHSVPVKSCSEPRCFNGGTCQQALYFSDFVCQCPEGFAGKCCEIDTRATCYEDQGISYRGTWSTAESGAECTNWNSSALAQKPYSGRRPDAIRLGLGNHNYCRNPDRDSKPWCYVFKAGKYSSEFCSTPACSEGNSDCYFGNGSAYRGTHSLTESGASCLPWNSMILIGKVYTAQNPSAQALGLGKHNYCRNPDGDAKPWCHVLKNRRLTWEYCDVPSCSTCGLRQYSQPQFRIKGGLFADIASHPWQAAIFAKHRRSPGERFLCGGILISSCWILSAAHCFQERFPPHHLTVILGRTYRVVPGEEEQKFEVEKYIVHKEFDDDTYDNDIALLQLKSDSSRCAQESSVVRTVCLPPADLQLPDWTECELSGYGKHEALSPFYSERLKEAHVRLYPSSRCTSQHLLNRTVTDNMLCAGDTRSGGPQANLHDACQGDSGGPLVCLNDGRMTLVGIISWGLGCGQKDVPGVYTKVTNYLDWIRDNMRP

B1: TPAi-1 RHP/RKA (antibody, V domains shown)
VH: QVQLVQSGAEVKKPGASVKVSCKASGNTSYWINWVRQATGQGLEWMGRIDPGGGSTGYAQKFQGRVTMTRDTSISTAYMELSSLRSEDTAVYYCASYYYAMAYWGQGTLVTVSS
VL: DVVMTQSPLSLPVTPGEPASISCRSSQSIVHSNGNTYLDWYLQKPGQSPQLLIYKVSNRASGVPDRFSGSGSGTDFTLKISRVEAEDVGVYYCFQGSHVPWTFGGGTKVEIK
As for B1, the EC50 was determined as 0.633 nM.

B2: TPAi-1 RHP/RKA Fab (Fab, V domains shown)
VH: B1 VH
VL: B1 VL
In the case of B2, the EC50 was 1.31 nM.
